Positions count from the first letter of the chain named.
B1: GOMP001_bsAb_013 (bispecific antibody, human IgG1, kappa, L234A L235A)
heavy 1: QVQLVQSGAEVKKPGASVKVSCKASGYTFTSHWMHWVRKAPGQGLEWIGEFNPSNGRTNYNEEFKSKATMTVDTSTNTAYMELSSLRSEDTAVYYCASRDYDYDGRYFDYWGQGTLVTVSSASTKGPSVFPLAPSSKSTSGGTAALGCLVADYFPEPVTVSWNSGALTSGVHTFPAVLQSSGLYSLSSVVTVPSSSLGTQTYICNVNHKPSNTKVDEKVEPKSCDKTHTCPPCPAPEAAGGPSVFLFPPKPKDTLMISRTPEVTCVVVDVSHEDPEVKFNWYVDGVEVHNAKTKPREEQYNSTYRVVSVLTVLHQDWLNGKEYKCKVSNKALPAPIEKTISKAKGQPREPQVYTLPPSREEMTDNQVSLTCLVKGFYPSDIAVEWESNGQPENNYKTTPPVLMSDGSFFLASKLTVDKSRWQQGNVFSCSVMHEALHNHYTQKSLSLSPG
light 1: RIQMTQSPSSLSASVGDRVTITCSASSSVTYMYWYQDKPGKAPKLLIYDTSNLASGVPSRFSGSGSGTDYTFTISSLQPEDIATYYCQQWSSHIFTFGQGTKVEIKRTVAAPSVFIFPPSDKQLKSGTARVVCLLNNFYPREAKVQWKVDNALQSGNSQESVTEQDSKDSTYSLSSTLTLSKADYEKHKVYACEVTHQGLSSPVTKSFNRGEC
heavy 2: QVQLVQSGAEVKKPGASVKVSCKASGYTFTSYDINWVRYATGQGLEWMGWMNPKSGKTGYAQKFQGRITMTRNTPISTVYMDLSSLRSEDTAVYYCAREGHYDFWTGYYSFDYWGRGTLVTVSSASTKGPSVFPLAPSSKSTSGGTAALGCLVKDYFPEPVTVSWNSGALTSGVHTFPAVLQSSGLYSLSSVVTVPSSSLGTQTYICNVNHKPSNTKVDKKVEPKSCDKTHTCPPCPAPEAAGGPSVFLFPPKPKDTLMISRTPEVTCVVVDVSHEDPEVKFNWYVDGVEVHNAKTKPREEQYNSTYRVVSVLTVLHQDWLNGKEYKCKVSNKALPAPIEKTISKAKGQPRRPRVYTLPPSREEMTKNQVSLVCLVKGFYPSDIAVEWESNGQPENNYKTTPPVLDSDGSFFLYSVLTVDKSRWQQGNVFSCSVMHEALHNHYTQKSLSLSPG
light 2: DIQMTQSPSSLSASVGDRVTITCRASQGIRNDLGWYQRTPGDAPKRLIYAASSLQSGVPSRFSGSGSGTEFTLTISSLQPEDFATYYCLQHYSYPYTFGQGTKLEIKRTVAAPSVFIFPPSDEQLKSGTASVVCLLNNFYPREAKVQWKVDNALQSGNSQESVTEQDSKDSTYSLSSTLTLSKADYEKHKVYACEVTHQGLSSPVTKSFNRGEC
B2: GOMP001_bsAb_015 (bispecific antibody, human IgG1, kappa, L234A L235A)
heavy 1: B1 heavy 1
light 1: B1 light 1
heavy 2: QVQLVESGGGVVQPGRSLRLSCAASGFTFSGYGMHWVRYAPGKGLDWVAIIYYNGNNKYYADRVKGRFTISRDNSKNTLYLQMNSLRAEDTAVYYCARGGGYNWFDPWGRGTLVIVSSASTKGPSVFPLAPSSKSTSGGTAALGCLVKDYFPEPVTVSWNSGALTSGVHTFPAVLQSSGLYSLSSVVTVPSSSLGTQTYICNVNHKPSNTKVDKKVEPKSCDKTHTCPPCPAPEAAGGPSVFLFPPKPKDTLMISRTPEVTCVVVDVSHEDPEVKFNWYVDGVEVHNAKTKPREEQYNSTYRVVSVLTVLHQDWLNGKEYKCKVSNKALPAPIEKTISKAKGQPRRPRVYTLPPSREEMTKNQVSLVCLVKGFYPSDIAVEWESNGQPENNYKTTPPVLDSDGSFFLYSVLTVDKSRWQQGNVFSCSVMHEALHNHYTQKSLSLSPG
light 2: not shown
B3: GOMP001_bsAb_017 (bispecific antibody, human IgG1, kappa, L234A L235A)
heavy 1: B1 heavy 1
light 1: B1 light 1
heavy 2: EVQLVESGGDLVQPGRSLRLSCAASGFTFDDCVIHWVRYAPGKGLEWVSGITWNSGRIGYADRVKGRFTISRDNAKNSLYLQMNSLRVEDTALYYCAKEGNYDFWSTYYRGYFDLWGRGTLVTVSSASTKGPSVFPLAPSSKSTSGGTAALGCLVKDYFPEPVTVSWNSGALTSGVHTFPAVLQSSGLYSLSSVVTVPSSSLGTQTYICNVNHKPSNTKVDKKVEPKSCDKTHTCPPCPAPEAAGGPSVFLFPPKPKDTLMISRTPEVTCVVVDVSHEDPEVKFNWYVDGVEVHNAKTKPREEQYNSTYRVVSVLTVLHQDWLNGKEYKCKVSNKALPAPIEKTISKAKGQPRRPRVYTLPPSREEMTKNQVSLVCLVKGFYPSDIAVEWESNGQPENNYKTTPPVLDSDGSFFLYSVLTVDKSRWQQGNVFSCSVMHEALHNHYTQKSLSLSPG
light 2: B1 light 2 with T39K, S56G, S60L, Y92N
B4: GOMP001_bsAb_016 (bispecific antibody, human IgG1, kappa, L234A L235A)
heavy 1: QVQLVESGGGVVQPGRSLRLSCAASGFTFSGYGMHWVRKAPGKGLDWVAIIYYNGNNKYYADEVKGRFTISRDNSKNTLYLQMNSLRAEDTAVYYCARGGGYNWFDPWGQGTLVIVSSASTKGPSVFPLAPSSKSTSGGTAALGCLVADYFPEPVTVSWNSGALTSGVHTFPAVLQSSGLYSLSSVVTVPSSSLGTQTYICNVNHKPSNTKVDEKVEPKSCDKTHTCPPCPAPEAAGGPSVFLFPPKPKDTLMISRTPEVTCVVVDVSHEDPEVKFNWYVDGVEVHNAKTKPREEQYNSTYRVVSVLTVLHQDWLNGKEYKCKVSNKALPAPIEKTISKAKGQPREPQVYTLPPSREEMTDNQVSLTCLVKGFYPSDIAVEWESNGQPENNYKTTPPVLMSDGSFFLASKLTVDKSRWQQGNVFSCSVMHEALHNHYTQKSLSLSPG
light 1: RIQMTQSPSSLSASVGDRVTITCRPSQSISNYLNWYQDKPGKAPKLLIYAASSLQSGVPSRFSGSGSGTDFTLTISSLQPEDFATYYCQQSYSTPFTFGRGTRLEIKRTVAAPSVFIFPPSDKQLKSGTARVVCLLNNFYPREAKVQWKVDNALQSGNSQESVTEQDSKDSTYSLSSTLTLSKADYEKHKVYACEVTHQGLSSPVTKSFNRGEC
heavy 2: QVQLVQSGAEVKKPGASVKVSCKASGYTFTSHWMHWVRYAPGQGLEWIGEFNPSNGRTNYNEKFKSKATMTVDTSTNTAYMELSSLRSEDTAVYYCASRDYDYDGRYFDYWGRGTLVTVSSASTKGPSVFPLAPSSKSTSGGTAALGCLVKDYFPEPVTVSWNSGALTSGVHTFPAVLQSSGLYSLSSVVTVPSSSLGTQTYICNVNHKPSNTKVDKKVEPKSCDKTHTCPPCPAPEAAGGPSVFLFPPKPKDTLMISRTPEVTCVVVDVSHEDPEVKFNWYVDGVEVHNAKTKPREEQYNSTYRVVSVLTVLHQDWLNGKEYKCKVSNKALPAPIEKTISKAKGQPRRPRVYTLPPSREEMTKNQVSLVCLVKGFYPSDIAVEWESNGQPENNYKTTPPVLDSDGSFFLYSVLTVDKSRWQQGNVFSCSVMHEALHNHYTQKSLSLSPG
light 2: B1 light 1 with R1D, D37R, K41D, K122E, R130S
B5: GOMP001_bsAb_014 (bispecific antibody, human IgG1, kappa, L234A L235A)
heavy 1: QVQLVQSGAEVKKPGASVKVSCKASGYTFTSYDINWVRKATGQGLEWMGWMNPKSGKTGYAQEFQGRITMTRNTPISTVYMDLSSLRSEDTAVYYCAREGHYDFWTGYYSFDYWGQGTLVTVSSASTKGPSVFPLAPSSKSTSGGTAALGCLVADYFPEPVTVSWNSGALTSGVHTFPAVLQSSGLYSLSSVVTVPSSSLGTQTYICNVNHKPSNTKVDEKVEPKSCDKTHTCPPCPAPEAAGGPSVFLFPPKPKDTLMISRTPEVTCVVVDVSHEDPEVKFNWYVDGVEVHNAKTKPREEQYNSTYRVVSVLTVLHQDWLNGKEYKCKVSNKALPAPIEKTISKAKGQPREPQVYTLPPSREEMTDNQVSLTCLVKGFYPSDIAVEWESNGQPENNYKTTPPVLMSDGSFFLASKLTVDKSRWQQGNVFSCSVMHEALHNHYTQKSLSLSPG
light 1: B1 light 2 with D1R, R38D, D42K, E123K, S131R
heavy 2: B4 heavy 2
light 2: B1 light 1 with R1D, D37R, K41D, K122E, R130S

Molecular target: EGFR on HeLa cells (UniProt P00533 25-1210, limits assumed)
Test: cell-based or functional assay

Row | Binder | Max killing % [%] | X… HeLa EC50 [pM]
1 | B1 | 80.8 | 668
2 | B2 | 100 | 179
3 | B3 | 91.4 | 705
4 | B4 | 92 | 19.2
5 | B5 | 95 | 131

From US20230295310A1 (ABCELLERA BIOLOGICS, published 2023)
